Assay results taken from the DeepSol protein solubility set.

Test: soluble on expression in E. coli; label from the status in PepcDB or PDB records

| Sequence | soluble on expression in E. coli |
| --- | --- |
| MSLTPYEPFRHLDQMRREFDRFFPDFPIDLPNRHLTLSPKMDVHETDHEVILECDIPGLESKEDLQIDVEPRSVRIEGRIKRSKEVHDERFYRREREIGHFRRVVPLPAEVAEDDIRAAYRNGVLEVRMRKRLDDRRRTIDVEFHLEHHHHHH | soluble |
| GPGSMYTHTRMHTTSASATLLSLPLCVRASPTNTPAAQLSALSDHLGLRVIKTNNLHTSSRSNMPAKAAAKPVKPAAKAAPKPANKAPAPKAAAAKPVAKAAPKAAAPAARPASGSSNGVYVKNWGTGSVADAANVFSAAGKVVKVQLRRQRYAIVFFENSAAVKKAIDLFNEKEVLGKTVLVVPAKTSPKPDAHENSSCVFVSPIFRPSTTKAQVMELFAGVKVQRLRMYRQNFAYAYLDSPAAAKKFVEEKNGTEFRGHTLRVALSARSLEKLRARQEAANVVIAAHRHYKTHERQ | not soluble |
| MTIKNVICDIDGVLMHDNVAVPGAAEFLHGIMDKGLPLVLLTNYPSQTGQDLANRFATAGVDVPDSVFYTSAMATADFLRRQEGKKAYVVGEGALIHELYKAGFTITDVNPDFVIVGETRSYNWDMMHKAAYFVANGARFIATNPDTHGRGFYPACGALCAGIEKISGRKPFYVGKPSPWIIRAALNKMQAHSEETVIVGDNLRTDILAGFQAGLETILVLSGVSSLDDIDSMPFRPSWIYPSVAEIDVI | soluble |
| MKNSLCNSVSSVVKKLLEYGEDGTPVYVNELTALNQELRNLCADLLLQKGESPEEEAEILVTLFKGYDTMLFNFSSENEQVIQELLDRSMTVLEKLPASVLKCQLLLECFEQTGDEELIREAKKNIERVI | soluble |
| MAIINGSQYIERVDNLQSNVWINGERVVGKLSEHPAFAGAIRSQARLYDAQHDPTKQPVLTFRTSTGELAGAAFLRPATKEDLEHRRLAFQEWARLTAGMMGRSPDYMNHRRDGARLGR | not soluble |
| MHCALLYSGGKDSTLAALLLDPFYDVTLVSGSFGVRDTDPAQESATAVGFDHVTVDLDPDVAHDAVKQMFDDGYPRNGIQRVHEHAVETVARADWVADADGLGTLDAVADGTRRDDRVPTVDRPLAQSIEDRFDVDYLAPLAGIGRGAIDAMAADRLVVESGPSAEIPKADYEVELRALLRKRYGEGAVADVFPEHTQSRVQGLR | not soluble |
| VDHLHIVGDVYDRGPYPDKIMDTLMNYHSLDFQWGNHDILWMGAASGSRVCAANVIRISARYLNLDILEDSYGISLRPLALFADEIYKNDPCTYFQPKNEDNLNYSKAEITQIARMHKAISIIQFKLEGEIINRRKEFDMNHRLLLQMIDYKKGTIHLKGKDYQLLDTHFPTIDPNDPYKLTKEEKELIEKITASFKNCRRLQKHVQFLYSKGSMFLTYNGNLLYHGCIPLYEDGTFMEMKLRGENFSGRELLEQFEILTREAYVRKPGTKEKKYACDIVWYLWTGAVSSLFGKSEMTTFERYFIAEKETHKEEKNPYYKLRNEETICKQILEEFGLDGECGHIINGHTPVKEGKGESPIKANTKMLVIDGGFAKAYHKETTLAGYTLLYNSY | not soluble |
| MAHHHHHHMATLTEDEIAPSAIAAERERLQEATQHVAELERRLDALQRELEAACTRREQLLLSVQWRELMAAVNADEDVYAVAERMMDAFAAFRESLVEPENYLQEQREEVLKEDDIVPYSDTDDYADFSGVEAVVEELLAAVKEQLESHAAAPPSSFRQTKHSSLRGSFASDERPKHPDGESAEAHKVSADARRQALLKLLVITVLMGRVEQYCRFKSISDASNVPQSEAEEMRDGVASVWQWLFHEQPGVLTAEEGAEWKHIAGAFLGDSYTVAP | not soluble |
| MRLLVMVFTSDKKLVEEIKREVERRGFRVRDVQSPDELRRDLEKLLREHNAQFVIIVVTDKEWAKEALKKAKEEGVQIFLILWDTNEDELRKFREEVERKGVDVRTATSPDDVKDIVREFLERVGSHHHHHH | soluble |
| MIGMMNSGAESSVEFYAAARQSSLYEPRKKSSQSRTYTPEGRVLVNGAPLSPTLDPQDLWKNMIIKTAAQKMIRENCEKKETGPMATIRRLSEKLKLKKSKSSAAMMNLDLDLDQKIPEVSEIESSSTTAVPQSPQQFVTNIRIEEANPVFFVQQSESLDRPHMLFEETSVLARLLEESSQIDKMEKDFAEKDSGKGSIDDDSVVVHKL | not soluble |
| MGSDKIHHHHHHMVNLMNINSHYLHNNSHECVSLSVRSKGTTQCPDIKVTQKAHIELGTLATPQLVRRRSGRYTIRLRLKGHAKPFISVSTRTTNRSIAVMRQKELATTAKAFLLDNPEVSKEELREHLKAMAEWLLTEATDDYWNGLDIAWLEDAKVNLRNIAATERLSAVQQTHIVESLKVLEAGQKRVDYGDATGLLDFVADDNTDSANNHTQGSTIGVLSSNLENQQGGSSSVFTYDDLVSMTLAEKITTLATSSYRDLQSSFSTVRGYAPVDLMDRSAWLKARDELLANGKAAITVNKLFVKVRMAIDYALMNGHLQGRNPIEKMKLTKDAESKRRAMTDEEIQMVLKAAESAPEARRWAVLVSIITGARSAEVAQLTKENIVVVDGITCIDINDDEGKKVKNKHSIRLIPLIDGAYGFNLEAFLKFVNTREPKTAIFGMTAGTYTAYFGRSIKGSIDALKDTKNVCMHSLRHSLTGKLKAAGVPLADAQGVLGHSSQSITYDLYGKGHAIGRLSDALRLALSGTGQ | not soluble |
| MSLIAHSNEIARPIFKSQDQLFTLYQGDCNEVLPQFENQFDLIFADPPYFLSNDGLSIQSGKIVSVNKGDWDKEDGINGIDEFNYQWINNAKKALKDTGSLLISGTYHNIFSLGCVLQKLDFKILNLITWQKTNPPPNFSCRYLTHSAEQIIWARKSRKHKHVFNYEVLKKINNDKQMRDVWSFPAIAPWEKVNGKHPTQKPLALLVRLLLMASDENSLIGDPFSGSSTTGIAANLLKREFIGIEKESEFIKISMDRKIELDARYKEIRSKIKDLNHQEGHHHHHH | not soluble |
| MAHHHHHHMSVGKPITRDSSKQLWRHIKSSGEEELTYTHNPYDDSPNRRKEREKSLNVCRHYAEGRCNRGSTCRFHHETRHNIIVTPHVTPKFSSIAPLKGLPTSPLGAYLSSPPNRSCNGCLLSPTHHNNSMSYNSSTNSSMKILSESSSTIPHLQLPESLSTHCRSSTYVASGMNGEQPPHDVLILSSSLGSLNVGDHVSRNNGGFLLTAQQR | not soluble |
| MPKRKTGYEEMLEDVIETLKQSPEEVNKALETSGKVVEAANDLTKDELALIAAYVKADLKEFSESYEDSKSGPFYLTVADSIWQGLLEITDRTKVEWVELFDDLEHQGLYEAGEVIGLGTLVCDECGHKTTYNHPIIIIPCIKCGHKGFSRQSLKP | not soluble |
| MGSDKIHHHHHHLAIINDYWSTQAEAFTEISVDELTSEKNALWKSILKPFVQTDRKLEILDVGCGAGFFEIFLSCLGHHVTAVDFNGKMLAEARKNIEKLGRPELTKLMQMDAQNLAFQDSVFDIVISRNMTWVLENPQRAYGEWLRVLKPHGKLINFDANWFLHLRDDTARRNFEEGQAAVVEHGFELKESDHGGELDNIFRELPLSGCWRPQWDFMTLANMGCEEIAVKFSLPKGLYDEYYEQLYKAIPTFMLCAVKTG | not soluble |
| MGSDKIHHHHHHMDLLELKAFVFAVQTGSITQAAFQLGRVQSSVSLRIKQLETELGVELLSRDRGGVRTTARGQILYDYATRILALAQEAKGEVMSPNTGEIVRLGTIETISPDCIDSLVRLLSGFDGMGVDVYVDGALSLVESLREGRIHAAIVGAGFAPPECIRIPLYGEAMVLISSLKYPRIDLVNQIANEIFLVCKKESACSRHLAMLFMEGGFQPARISECGSFSILMSSVVRGMGIALVPLSAVLGSAHEKQVLIHPLSGHFSTFQVEFVCPQPKGRPILERLIEKISQEFVGQKPN | not soluble |
| VTTMHDVARAAGVSQAAVSYAYNQPHKLSAARRAHIFQVAAELGYAGPNPAGRNLRTGQVGALGLMITDSLRYAFDDPATSQLLKGISEVGELAEVALTLLPCPLESTRVAEGSGVLVRGAVDGFLAYAMPDGHPGMQTAMSRRLPIVVIDGPNPGGLPRVGIRDRQAAKEIAEHVLSLGHRRVGFLVDRLVPDGKGGPVDAARTRAARDHVMKERLAGYASACRKYTVPWSSTVVVEAGGFDYELSRTAVETLLDAGPVTAVIAASDLLALAAIDVAHERGLRVPQDLSVVGFDDIPAARAAGLTTVRQPLVDKGREAAQLLLDIIGGGAGREITLPTELVVRESAGPVTADR | not soluble |
| SLGELPPAPSDSKRTVFLDIDETLVHVTPYPLPFVKPDATFLLQEHRRPSDPPGVSPEYLPGVSAGAAPRAALLHVYYRPFLMPFLENLLQTNRCELVAFTAALREYADPILDGIETKLGGARGSVFAARLYRQHCARAPRSKDLVHAAPSRCLSRCVLLDNSVVSLAAQLANGLLLRPFYGDPQDRELEGVLAFLLDLLEKTGDIRESMKESGMLHKVT | soluble |
| MDQALLDGGYRCYTGEKIDVYFNTAICQHSGNCVRGNGKLFNLKRKPWIMPDEVDVATVVKVIDTCPSGALKYRHK | soluble |
| MKLASLKSTRSRDGELCIVNRLLTAAIRVPHIASTLQYALDHWDVVEPKLQLVYQQLNDNQIEDAFAFAPELCASPLPRAYQWADGSAYVNHVELVRKARGAEMPADFWTNPLMYQGGSDAFLGPRDPILVSSEAYGIDFESEVAVITDDVPMGIDHTNAAHHIKLLMLVNDVSLRNLIPEELAKGFGFFQSKPASSFSPVAITPDELGSYWDGQRVNLPLISHLNEQLFGQPNAGVDMTFSFPELIQHAAKTRFLTAGTIIGSGTVSNLDRSKGSSCIAEKRMLEMIEFGQAKTPFMRFGDRIRIEMLDGQGYSLFGSIDQIVTKYDKDSL | not soluble |
| SEKNPPDDTGPVHVPLGHIVANEKWRGSQLAQEMQGKIKLIFEDGLTPDFYLSNRCCILYVTEADLVAGNGYRKRLVRVRNSNNLKGIVVVEKTRMSEQYFPALQKFTVLDLGMVLLPVASQMEASCLVIQLVQEQTKEPSKNPLLGKKRALLLSEPSLLRTVQQIPGVGKVKAPLLLQKFPSIQQLSNASIGELEQVVGQAVAQQIHAFFTQPR | soluble |
| MVLPERDSPCGWTRMIPLPSDGSVSIAGRSPRLNVEAVEAVVTLPTFKRPEQVLDTLASLRAQRTGRRFAVIVMENEAEVREGAKAVLPLFERGEMPGMVIVAQERGNCSAYNAGWQTAMLHFPNFRHLLVIDDDEIADPHWLERMCMAAETLGADIVGGPQVPVFADAAHARWAEHPVFAPPYRETGRVPALYSSGNLLVGRNVLVAMEPPFLDLKFNFMGGGDSDFLSRAVQNGFVLGWCAEAKVRETVPARRVEPDWIRARSLRNGVISTLVEKKKRAGTPLAGAEVLAKSLALLAAAPFRGLIRLARTGSPAIAIYPVHVALGRVLAEFGYANEQYRQPEKN | not soluble |
| MSLTAGKMNVKEKIKDIHFYRAVSDISRPIADSTHTISQIGFYIVELMTAEGVRGQGYVLSFHYSPGAMEGALRDVCSFISAGEYAVYDTVLARADWDREAEYFGNTGINNCAIAAVNLAMWDAWGHTCRQPVWKMLGANRRRIPVYGSGGWISYTDQELLEEVLDYKKRGFKAVKIKVGSGSIERDAERLAKCREALGDSVKIMMDANQGFNVPDALELARRASSMGIQWFEEPVVHTDYAGYQLLRNQCGIALAMGEREYDFEALKQLSVRNALDLWQPDIVRLGGVEAWRESAALAEAFGLPVLPHYYKDYDVPLLCTVRSPYGAESFDWIDGIIDNAMEIENGFASPREGDGWGFRFREECMTEVEGHHHHHH | soluble |
| DYKDDDDKVKLTCYQNGVSFTGGKAISEAKAASSQACQELCEKDAKCRFFTLASGKCSLFADDAALRPTKSDGAVSGNKRCILLED | soluble |
| GGTKTAAEAAAPAVHPVSGLQIVPVTVTGTSGRHVFRSELARTSAEQAKGLMFRTELGDEEGMIFLRNPPDMATFWMRNTVIPLDIIFVGLDRRVMNIAANAVPYDETPLPAAGPTLAVLEINGGLAARLGIKPGDKVEW | soluble |
